± gives the uncertainty stated by the source.
Assay: protein stability index of a GFP-peptide fusion (yeast GPS) (PSI 1-4); higher = more stable; sorted into four equal gates, so the index is relative within each strain
Outline: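 Plasmids in a pooled yeast library fused tiled 17-residue yeast protein peptides downstream of GFP and also expressed Cherry. Mid-log cultures grown without leucine were sorted into four equal gates by GFP/Cherry fluorescence ratio. Each gate's plasmids were PCR-amplified and Illumina-sequenced, and reads were matched to strains by barcodes. The protein stability index is derived by multiplying each gate's read frequency by its gate number and summing the results.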

Sequence	protein stability index (doa10∆)	protein stability index (pdr5∆)	protein stability index (san1∆)	protein stability index (ubr1∆)
LLDVVKGTEASNDIIDK [YDL116W/NUP84]	2.08 ± 0.19	2.51 ± 0.14	1.92 ± 0.15	1.47 ± 0.041
LAQTLKLWRKIARLYSC [RRI2]	1.2 ± 0.07	1.21 ± 0.058	1.34 ± 0.096	1.26 ± 0.053
TWRTQLAASEIGISIVG [ECM29]	1.72 ± 0.065	2 ± 0.083	1.68 ± 0.071	1.88 ± 0.037
HRLKLCKSLISENEDTK [CSE2]	2.91 ± 0.17	3.24 ± 0.27	2.42 ± 0.2	
PLQNNLPELWALLNFVL [SNF2]	2.69 ± 0.051	2.64 ± 0.045	2.56 ± 0.057	2.46 ± 0.037
ARQQVAQQLRNQQQQQQ [GAL11]	2.73 ± 0.064	3.2 ± 0.13	2.85 ± 0.097	2.92 ± 0.076
YPDLQPFVLAENMWPFS [CDC53]	1.68 ± 0.05	2.09 ± 0.044	2.01 ± 0.055	1.71 ± 0.044
KEGASTNWDDHAIIIFG [YMR153W/NUP53]	2.86 ± 0.094	3.05 ± 0.075	3.27 ± 0.095	2.59 ± 0.059
QNIETRQLANLIPFIVK [NUT1]	1.61 ± 0.054	1.58 ± 0.041	1.41 ± 0.086	1.63 ± 0.039
RMERIKDHLLLEEEFVS [RPT2]	2.24 ± 0.12	2.22 ± 0.097	2.09 ± 0.13	2.23 ± 0.1
KNNNGDEKNKNNNEDNE [MED2]	3.23 ± 0.12	3.17 ± 0.11	2.87 ± 0.11	3.15 ± 0.11
AQSSHIRAIRKVISEIL [RPS1A]	1.55 ± 0.017	1.624 ± 0.015	1.62 ± 0.031	1.748 ± 0.015
ESKLRDDLERLKKIRAH [RPS18A]	2.78 ± 0.13	1.98 ± 0.087	1.5 ± 0.16	3.3 ± 0.048
LYVDSESTSSTEEVEAL [MTW1]	2.92 ± 0.11	3.76 ± 0.15	3.14 ± 0.19	3.24 ± 0.11
FNYVQECPAIPIFNYIF [YJL039C/NUP192]	1.9 ± 0.072	1.75 ± 0.056	1.88 ± 0.082	1.85 ± 0.042
TVINEQQREAVRQLYKG [RPL35A]	3.44 ± 0.094	3.43 ± 0.14	3.13 ± 0.12	3.31 ± 0.079
GSKQADRMAKYLHIRDK [PGD1]	3.08 ± 0.12	3.3 ± 0.097	3.09 ± 0.057	3.14 ± 0.071
EILRIHSRKMNLTRGIN [RPT6]	2.85 ± 0.06	2.99 ± 0.071	2.29 ± 0.075	2.52 ± 0.06
AIVLPMKRADKFKDMGI [RPT5]	2.39 ± 0.096	3.11 ± 0.24	3.09 ± 0.17	3.09 ± 0.16
LAFKKNEMLLKRVTKVK [MTW1]	1.77 ± 0.065	2.03 ± 0.052	2.31 ± 0.12	2.03 ± 0.035
FERFPSPSTSANVPSTA [RPN4]	1.81 ± 0.046	1.92 ± 0.04	1.56 ± 0.077	2.36 ± 0.039
RQCFREKANDIGFHKYR [RPS29B]	3.34 ± 0.15	3.35 ± 0.13	2.96 ± 0.1	2.88 ± 0.1
LGVEDITLIDSASLHLN [RET1]	2.03 ± 0.063	1.61 ± 0.043	1.8 ± 0.1	1.8 ± 0.046
NDNEGKHISASIDNDFS [YAR002W/NUP60]	3.05 ± 0.089	3.04 ± 0.071	3.19 ± 0.099	2.92 ± 0.067
KSSFVKESAVISKQKSK [SMC1]	2.18 ± 0.1	2.34 ± 0.046	2.26 ± 0.064	2.37 ± 0.037

Sequence	protein stability index (doa10∆)	protein stability index (pdr5∆)	protein stability index (san1∆)	protein stability index (ubr1∆)
ENHNKGKLWKDVKARIA [QCR9]	2.77 ± 0.14	3.07 ± 0.19	3 ± 0.13	2.83 ± 0.12
ELLNADHQHILRKLKKM [RPC53]	1.13 ± 0.059	1.24 ± 0.063	1.11 ± 0.15	1.28 ± 0.046
PDLDTECFISMQSTSPA [SWI1]	2.68 ± 0.18	3.02 ± 0.13	2.32 ± 0.17	2.93 ± 0.07
LLVVIFKKTLRSRISSP [SRB4]	1.53 ± 0.085	1.66 ± 0.094	1.77 ± 0.13	1.95 ± 0.11
FKYIYELILAGAIDEAL [YDL116W/NUP84]	1.6 ± 0.074	1.5 ± 0.073	1.44 ± 0.1	1.52 ± 0.067
LDSNNNNSNSNNNDNNN [SWI1]	2.65 ± 0.035	2.74 ± 0.039	2.79 ± 0.028	2.71 ± 0.029
NILIASLMDTLITPAVR [YCG1]	1.41 ± 0.063	1.91 ± 0.073	1.58 ± 0.13	1.78 ± 0.055
LHGNAKKAAEEAGVTDV [FAS2]	3.42 ± 0.12	3.18 ± 0.12	3.13 ± 0.12	3.34 ± 0.15
ESNVNDSDMLTKSHNTV [NUT1]	3.08 ± 0.1	3.25 ± 0.095	3.28 ± 0.086	3.43 ± 0.1
QRTATLCLEKLMCLSSK [YCS4]	1.6 ± 0.049	2.29 ± 0.075	2.49 ± 0.11	1.78 ± 0.057
AAESKKYRQTKLSKEER [RPL5]	3.1 ± 0.23		3.05 ± 0.22	3.06 ± 0.26
ITVHAPLLPIVEELMKK [SNU114]	2.38 ± 0.068	2.55 ± 0.054	2.52 ± 0.074	2.7 ± 0.055
SKKDPRILKNVSPNDNN [YMR153W/NUP53]	2.65 ± 0.069	2.36 ± 0.045	2.42 ± 0.054	2.47 ± 0.034
ANEQLKLFNRIVERETN [CSN12]	2.5 ± 0.12	2.73 ± 0.16	1.71 ± 0.24	2.81 ± 0.15
NFPDEDDDDSRKSAPVD [SKP1]	3.09 ± 0.046	3.2 ± 0.047	3.31 ± 0.04	3.27 ± 0.041
GSIQKGMPHKFYQGKTG [RPL21A]	3.07 ± 0.14	3.06 ± 0.16	2.9 ± 0.21	2.51 ± 0.28
QGIFKNSSNYFGELQFA [AAR2]	2.36 ± 0.14	2.6 ± 0.1	2.41 ± 0.12	2.11 ± 0.12
DAVLKIFSFHQDSIFQR [SRB8]	3.12 ± 0.11	2.79 ± 0.12	3.04 ± 0.077	2.77 ± 0.057
PDFEKLLPFVKGNVGFV [RPP0]				1.89 ± 0.19
PVGRELDPISLILIPGE [RPN13]	2.65 ± 0.098	2.56 ± 0.05	3.13 ± 0.062	3.23 ± 0.098
NGEEDEVALFSQKAKLM [YLR335W/NUP2]	1.16 ± 0.17	1.16 ± 0.13		1.17 ± 0.094
VPPINCIFNFLQQQTPV [SME1]	1.34 ± 0.042	1.58 ± 0.035	1.49 ± 0.065	1.64 ± 0.042
SRHFASYANLPGTITHG [FAS1]	2.75 ± 0.059	2.82 ± 0.055	2.57 ± 0.055	2.71 ± 0.039
YDSDSDSSVEDSTDNEN [LIN1]	3.08 ± 0.071	2.95 ± 0.1	2.91 ± 0.12	3.1 ± 0.042
EKAVEEKPAVKSYASLL [RPT3]	2.89 ± 0.06	3.02 ± 0.053	2.92 ± 0.052	2.96 ± 0.049
